From paper PMC7547225 (Proceedings of the National Academy of Sciences of the …, 2020)

B1: hs PCDH15 EC2-3 WT (domain or fragment)
chain: NSPTFKHESYYATVNELTPVGTTIFTGFSGDNGATDIDDGPNGQIEYVIQYNPDDPTSNDTFEIPLMLTGNIVLRKRLNYEDKTRYFVIIQANDRAQNLNERRTTTTTLTVDVLDGDDLGPMFLPCVLVPNTRDCRPLTYQAAIPELRTPEELNPIIVTPPIQAIDQDRNIQPPSDRPGILYSILVGTPEDYPRFFHMHPRTAELSLLEPVNRDFHQKFDLVIKAEQDNGHPLPAFAGLHIEILDENN
B2: hs PCDH15 EC1-3 G16D/N369D/Q370N (domain or fragment)
chain: not shown

Tests used:
AUC = target: the molecule itself; assay: AUC
[1] = target: the molecule itself

Protein | Kd (AUC) [nM] | stoichiometry N [1]
B1 | < 1000 | 
B2 |  | 2
